From patent US20200247886A1 (ZLIP, published 2020) come the findings set out here.

The term EC50 denotes the midpoint of the concentration-response curve. One may read the Kd as a measure of binding affinity in units of concentration. A word on the IC50: it is the concentration that inhibits the measured activity by half. A word on the EC50 (read off the curve): it is the concentration giving half of the maximal effect.

The target of assay [1] is T1, human CD47 expressed on cells (CD47 expressing CHO cells, Jurkat, HL60, DLD1, Raji) (human, UniProt Q08722 19-292).
T1 construct: also called CHO-CD47; IAP
Description: EC50 (nM) as grade, binding on CHO-CD47 cells; legend +++: >0.05 nM and <1 nM.

The next assay deals with T2, CHO/mCD47-GFP (mouse, UniProt Q61735).
T2 construct: on the cell surface; also called mouse CD47 expressed on CHO cells; CHO cell expressing mouse CD47
T2 sequence (receptor, looked up): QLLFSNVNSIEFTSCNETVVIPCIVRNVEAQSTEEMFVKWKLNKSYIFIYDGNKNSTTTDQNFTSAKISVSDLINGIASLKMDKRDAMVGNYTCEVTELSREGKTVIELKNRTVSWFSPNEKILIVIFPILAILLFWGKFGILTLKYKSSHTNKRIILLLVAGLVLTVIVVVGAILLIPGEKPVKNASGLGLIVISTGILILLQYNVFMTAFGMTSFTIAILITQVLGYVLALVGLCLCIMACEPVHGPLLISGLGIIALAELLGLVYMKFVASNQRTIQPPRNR
Description: flow cytometry on CHO cells expressing mouse CD47-GFP, binding percentage. (In general: A flow cytometer gives signals particle by particle.)

In assay [2] the target is T3, CD47 protein (construct not stated; SPR antigen, CD47 coated ELISA plates) (Homo sapiens (Human), UniProt Q08722 19-139, limits assumed).
T3 construct: also called the antigen
Briefly: SPR (Biacore T100), affinity (nM) as grade; legend -: >40 nM. On the technique in general: Surface plasmon resonance follows binding to a sensor surface in real time, without labels.

The target in assay [3] is T4, human CD47-Fc protein (Novoprotein, Cat#CG18) (human, UniProt Q08722 19-139).
T4 construct: Bought protein; also called CD47-hFc; hCD47-hFc fusion protein; not shown: human IgG Fc of the bought fusion protein
Briefly: IC50 (nM) as grade, blocking of soluble CD47 binding to SIRPα-expressing CHO cells; legend ++: >1 nM and <10 nM.

Assay [4] has as its target T1, human CD47 expressed on cells (CD47 …). Briefly: EC50 (nM) as grade, binding on Jurkat cells; legend +++: >0.05 nM and <1 nM.
Assay [5] shares this target. Briefly: flow cytometry on human red blood cells, donor 2, MFI; EC50 (nM) table beside the legend.
Assay [6] has as its target T3, CD47 protein (construct not stated; SPR …). Briefly: SPR (Biacore T100), affinity (nM) as grade; legend +: >10 nM and <40 nM.
For assay [7], the target named is T1, human CD47 expressed on cells (CD47 …). Description: EC50 (nM) as grade, binding on CHO-CD47 cells; legend ++++: <0.05 nM.
Assay [8] addresses T4, human CD47-Fc protein (Novoprotein, …). Briefly: IC50 (nM) as grade, neutralizing ELISA, CD47-hFc on SIRPα coated plate; legend +++: >8 nM and <15 nM.
Assay [9] shares this target. Briefly: IC50 (nM) as grade, blocking of soluble CD47 binding to SIRPα-expressing CHO cells; legend +++: >0.05 nM and <1 nM.
Assay [10] addresses T1, human CD47 expressed on cells (CD47 …). Description: IC50 (nM) MFI as grade, blocking biotinylated SIRPa-Fc binding to DLD1 cells; legend +++: <1 nM.
The target is the same in assay [11]. Briefly: flow cytometry on human red blood cells, donor 1, MFI.
Assay [12] has the same target. Description: flow cytometry on DLD1 cells, IgG, MFI.
Assay [13] has the same target. Briefly: flow cytometry on human red blood cells, donor 2, MFI.
The target is the same in assay [14]. Briefly: IC50 as grade, SIRPα blocking on Raji cells; legend +++: <1 nM.
Assay [15] shares this target. Briefly: flow cytometry on CD47 expressing CHO cells, MFI (FL-4).
Assay [16] has as its target T5, His-tagged CD47 (Homo sapiens (Human), UniProt Q08722 19-139, limits assumed).
T5 construct: not shown: His tag
Description: IC50 (nM) Frequency as grade, blocking His-tagged CD47 binding to SIRPα-CHO cells; legend +: >2.7 nM.

In assay [17] the target is T5, His-tagged CD47. Briefly: flow cytometry blocking assay: His-tagged CD47 with Fab on SIRPα-expressing CHO cells (SIRPα is the blocked ligand), anti-His-APC, MFI.
In assay [18] the target is T1, human CD47 expressed on cells (CD47 …). Briefly: IC50 as grade, SIRPα blocking on Raji cells (second part of the table); legend +++: <1 nM.
The target is the same in assay [19]. Briefly: flow cytometry blocking assay: 100 nM biotinylated SIRPa-Fc (blocked ligand) on DLD1 cells expressing CD47, MFI.
The target is the same in assay [20]. Description: flow cytometry blocking assay on Raji cells, SIRPα is the blocked ligand, MFI.
The target is the same in assay [21]. Briefly: flow cytometry on human platelets, donor 2, MFI.
The target is the same in assay [22]. Briefly: IC50 (nM) Frequency as grade, blocking biotinylated SIRPa-Fc binding to DLD1 cells; legend ++: >1 nM and <20 nM.
The target in assay [23] is T5, His-tagged CD47. Description: flow cytometry blocking assay: His-tagged CD47 with Fab on SIRPα-expressing CHO cells (SIRPα is the blocked ligand), anti-His-APC, frequency.
The target of assay [24] is T1, human CD47 expressed on cells (CD47 …). Description: flow cytometry blocking assay: 100 nM biotinylated SIRPa-Fc (blocked ligand) on DLD1 cells expressing CD47, frequency.
In assay [25] the target is T5, His-tagged CD47. Description: IC50 (nM) MFI as grade, blocking His-tagged CD47 binding to SIRPα-CHO cells; legend +: >2.7 nM.
For assay [26], the target named is T1, human CD47 expressed on cells (CD47 …). Briefly: flow cytometry blocking assay on Raji cells, SIRPα is the blocked ligand, MFI. The source holds these as a separate data set.
The target in assay [27] is T6, biotin labelled polyhistidine tagged CD47 protein (Novoprotein, Cat#321) (human, UniProt Q08722 19-139, biotin labelled (site not stated)).
T6 construct: Bought protein; also called biotinylated CD47; biotinylated human CD47 protein; not shown: polyhistidine tag
Description: flow cytometry blocking assay: antibody mixed with biotinylated human CD47 protein; blocked ligand SIRPα on cells; binding percentage.

Assay [28] deals with T1, human CD47 expressed on cells (CD47 …). Briefly: flow cytometry on DLD1 cells, IgG, frequency.
Assay [29] shares this target. Briefly: flow cytometry SIRP-alpha blocking assay on Raji cells, MFI.

B1: ABU1 (antibody, V domains shown)
VH: EVKLVESGGGLVQPGGSRKLSCAASGFTFSDYGMAWVRQAPGKGPECVAFISNLAKRIYYVDTVTGRFTISRENAKNTLYLEMSSLRSEDTAMYYCTRAYRYALDYWGQGTTLTVSS
VL: QIVLTQSPAIMSASPGEKVTMTCSASSSVSYMNWYQQKSGTSPKRWIYDTSKLASGVPARFSGSGSGTSYSLTISSMEAEDAATYYCQQWNSNPPTFGTGTKLELK
notes: Murine hybridoma monoclonal antibody
With B1, the EC50 was 0.05 to 1 nM in assay [1], 0.05 to 1 nM in [4] and 0.12 nM in [5]. The binding result in the assay with CHO/mCD47-GFP is listed as “no binding (tested: about 0.4 ug/ml)”. This molecule had a Kd in assay [2] above 40 nM. Moreover, the IC50 in [3] was in the range of 1 to 10 nM.

B2: ABU4 (antibody, V domains shown)
VH: QVQLQQSGPQLVRPGASVKISCKTSGYSFTNYWMQWVKQRPGQGLEWIGMIDPSDSESRLNQKFKDKATLTVDKSSSTAYMQLSSPTFEDSAVYYCARRGSPMITSFAYWGQGTLVTVSA
VL: DVQITQSPSFLAASPGETITINCRASKNIGKYLAWFQEKPGKTNKLLIYSGSTLQSGIPSRFSGSGSGTDFTLTISSLEPEDFAIYYCQQHNEYPYTFGGGTKLEIK
notes: as for B1
As for B2, the “Affinity by SPR” value in assay [6] lay in the range of 10 to 40 nM. Besides, the binding result in the assay with CHO/mCD47-GFP is reported as “no binding (tested: about 0.4 ug/ml)”. In addition, the EC50 was below 0.05 nM in assay [7], 0.05 to 1 nM in assay [4] and 0.34 nM in [5]. In addition, the values for the IC50 in assay [8] and in assay [9] were 8 to 15 nM and 0.05 to 1 nM, respectively.

B3: Positive 3 (analogue antibody) (antibody, V domains shown)
VH: QMQLVQSGAEVKKTGSSVKVSCKASGFNIKDYYLHWVRQAPGQALEWMGWIDPDQGDTEYAQKFQDRVTITRDRSMSTAYMELSSLRSEDTAMYYCNAAYGSSSYPMDYWGQGTTVTV
VL: NIQMTQSPSAMSASVGDRVTITCKASQDIHRYLSWFQQKPGKVPKHLIYRANRLVSGVPSRFSGSGSGTEFTLTISSLQPEDFATYYCLQYDEFPYTFGGGTKVEIK
Regarding B3, the IC50 was below 1 nM in assay [10]; below 1 nM in assay [14]; above 2.7 nM with His-tagged CD47 [16]; below 1 nM in assay [18]; 1 to 20 nM in [22]; above 2.7 nM with His-tagged CD47 [25]. For the same molecule, the concentration for a half-maximal effect (EC50 (read off the curve)) was around 1 nM in assay [11]; around 0.6 nM in assay [12]; around 1 nM in [13]; around 1 nM in assay [15]; around 0.6 nM in assay [21]; around 0.07 nM in assay [28]. In addition, the “IC50 (read off the curve)” value is around 3 nM with His-tagged CD47 [17]; around 0.3 nM in [19]; around 0.9 nM in assay [20]; around 3 nM with His-tagged CD47 [23]; around 1 nM in assay [24]; around 0.6 nM in [26]. Also, the “IC50 (read off the curve)” value in assay [27] was around 1 nM; in assay [29] it was around 0.6 nM.
